Target: Epstein-Barr virus glycoprotein H / glycoprotein L complex (gH/gL), wild type (Epstein-Barr virus) (UniProt P03231)
Assay: CELISA

Work on “Epstein-Barr virus glycoprotein 42 (gp42), wild type, soluble form in medium (from UniProt P03205) (natural protein)” yielded a percent decrease of gH/gL binding to HEK 293 cells by soluble gp42 of 50%.
